Reference: publication PMC7430637, “Alternative splicing and allosteric regulation modulate the chromatin binding of UHRF1” (Nucleic Acids Research, 2020)
Changes are numbered by the printed parent chain.

Experiments:
Test in all cases: fluorescence polarisation; FAM-labelled H3(1-15) peptide, recombinant protein titrated; RT; as described (ref. 28)
Details in all cases: both partners purified
[1] = target: T1, mTTD-PHD V1 P-patch* (P293A/P294A/P295A) (mouse, UniProt Q8VDF2-1 122-380, P293A | P294A | P295A)
T1 construct: UHRF1, mouse, splicing variant V1 (NCBI NP_001104550.1), TTD-Linker 2-PHD, residues 122-380 as told for wild-type mTTD-PHD V1; source: E. coli BL21(DE3) RIL, purified (HisPur Cobalt-Resin)
T1 sequence (looked up): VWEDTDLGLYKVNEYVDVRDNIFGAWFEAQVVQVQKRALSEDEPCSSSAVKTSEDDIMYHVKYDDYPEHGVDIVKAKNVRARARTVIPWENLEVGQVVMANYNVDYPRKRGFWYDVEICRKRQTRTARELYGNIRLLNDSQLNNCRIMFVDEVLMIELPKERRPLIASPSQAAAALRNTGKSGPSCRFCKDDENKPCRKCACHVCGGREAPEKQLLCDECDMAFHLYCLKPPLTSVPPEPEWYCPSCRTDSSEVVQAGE

[2] = target: T2, mUHRF1 V1 mLinker 2 V1* (P293A/P294A/P295A/L297A/R298A/N299A/T300A/G301A/K302A/S303A), full-length (mouse, UniProt Q8VDF2-1 1-782, P293A | P294A | P295A | L297A | R298A | N299A | T300A | G301A | K302A | S303A)
T2 construct: UHRF1, mouse, splicing variant V1, NCBI NP_001104550.1, with ten alanine substitutions in Linker 2; source: E. coli BL21(DE3) RIL, purified (HisPur Cobalt-Resin)
T2 sequence (looked up): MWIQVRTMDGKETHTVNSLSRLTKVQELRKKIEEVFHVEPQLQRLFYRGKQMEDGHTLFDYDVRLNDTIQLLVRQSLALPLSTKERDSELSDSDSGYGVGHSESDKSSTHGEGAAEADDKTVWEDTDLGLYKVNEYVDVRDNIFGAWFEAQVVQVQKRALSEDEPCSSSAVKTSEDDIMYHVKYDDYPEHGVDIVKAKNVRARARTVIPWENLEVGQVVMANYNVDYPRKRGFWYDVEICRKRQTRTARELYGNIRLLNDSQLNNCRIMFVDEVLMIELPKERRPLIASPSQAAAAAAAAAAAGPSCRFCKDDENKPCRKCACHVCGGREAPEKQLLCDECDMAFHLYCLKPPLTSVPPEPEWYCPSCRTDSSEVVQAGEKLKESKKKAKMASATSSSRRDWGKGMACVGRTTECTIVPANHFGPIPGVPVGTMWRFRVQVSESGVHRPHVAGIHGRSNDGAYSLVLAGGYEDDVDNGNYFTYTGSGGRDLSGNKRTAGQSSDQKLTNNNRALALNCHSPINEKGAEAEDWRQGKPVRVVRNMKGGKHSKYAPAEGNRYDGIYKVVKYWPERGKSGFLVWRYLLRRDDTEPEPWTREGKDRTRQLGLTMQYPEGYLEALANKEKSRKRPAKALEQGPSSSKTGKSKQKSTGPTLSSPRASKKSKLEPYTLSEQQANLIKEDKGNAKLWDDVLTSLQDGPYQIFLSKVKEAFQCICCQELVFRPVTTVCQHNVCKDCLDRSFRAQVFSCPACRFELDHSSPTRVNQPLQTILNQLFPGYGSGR

[3] = target: T3, mUHRF1 V1 R-S* (R298A/N299A/T300A/G301A/K302A/S303A), full-length (mouse, UniProt Q8VDF2-1 1-782, R298A | N299A | T300A | G301A | K302A | S303A)
T3 construct: UHRF1, mouse, splicing variant V1, NCBI NP_001104550.1, with six alanine substitutions in Linker 2; source: E. coli BL21(DE3) RIL, purified (HisPur Cobalt-Resin)
T3 sequence (looked up): T2 sequence (looked up) with A293P, A294P, A295P, A297L

[4] = target: T4, mTTD-PHD V1 R298* (R298A) (mouse, UniProt Q8VDF2-1 122-380, R298A)
T4 construct: UHRF1, mouse, splicing variant V1 (NCBI NP_001104550.1), TTD-Linker 2-PHD, residues 122-380 as told for wild-type mTTD-PHD V1; source: E. coli BL21(DE3) RIL, purified (HisPur Cobalt-Resin)
T4 sequence (looked up): T1 sequence (looked up) with A172P, A173P, A174P, R177A

[5] = target: T5, mUHRF1 V1 P-patch/R-S* (P293A/P294A/P295A/R298A/N299A/T300A/G301A/K302A/S303A), full-length (mouse, UniProt Q8VDF2-1 1-782, P293A | P294A | P295A | R298A | N299A | T300A | G301A | K302A | S303A)
T5 construct: UHRF1, mouse, splicing variant V1, NCBI NP_001104550.1, with nine alanine substitutions in Linker 2; source: E. coli BL21(DE3) RIL, purified (HisPur Cobalt-Resin)
T5 sequence (looked up): T2 sequence (looked up) with A297L

B1: FAM-H3(1-15)K9me3 peptide (N-terminally fluorescein-labelled) (peptide)
peptide: ARTKQTARKSTGGKA
modifications: fluorescein (FAM) on the N-terminus; K9 trimethylated
notes: histone H3 aa 1-15; also called FAM-H3K9me3; source: synthetic peptide (Synpeptide Co., Ltd)
Kd [1]: 10.2 ± 0.3 µM
Kd [2]: 12.6 ± 0.5 µM
Kd [3]: 11.1 ± 0.3 µM
Kd [4]: 5.9 ± 0.5 µM
Kd [5]: 13.9 ± 0.8 µM
